Patent US20240092930A1 (MABWELL SHANGHAI BIOSCIENCE, published 2024)
Blank lines part the entries; values can stand above or below the binder they belong to.

Tests used:
[1] = target: T1, recombinant mouse Trop-2-his protein (Cat.: 50922-M08H, Beijing Yiqiao Shenzhou Science and Technology Co., … (mouse, UniProt Q8BGV3 25-270)); assay: ELISA, coated mouse Trop-2-his, purified murine antibody 1 µg/ml
T1 construct: Bought protein; not shown: his tag
T1 sequence (looked up): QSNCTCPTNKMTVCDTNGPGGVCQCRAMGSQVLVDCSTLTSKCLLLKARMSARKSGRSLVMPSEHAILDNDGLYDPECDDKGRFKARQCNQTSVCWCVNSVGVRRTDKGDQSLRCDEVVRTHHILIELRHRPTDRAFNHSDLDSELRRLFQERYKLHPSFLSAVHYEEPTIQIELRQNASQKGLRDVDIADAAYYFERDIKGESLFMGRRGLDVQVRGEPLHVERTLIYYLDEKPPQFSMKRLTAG
Method: (§1) Washed with PBS 3 times, the plates were blocked with the added 5% BSA PBS at 37° C. for 60 min, and then washed 3 times with PBST. The 15 purified murine antibodies were diluted to 1 μg/ml with PBS. Controls as follows were set: (1) Positive Control (PC): Sacituzumab (WHO Drug Information (Vol. 31, No. 1, 2017), SEQ ID NO: 39 and SEQ ID NO: 40), a version having murine IgG constant region, […]; (2) Negative Control (NC): an antibody from an irrelevant hybridoma, 1 μg/ml; (3) blank control: PBS. After incubation at 37° C. for 60 min, the plates were washed 4 times with PBST. […] Afterwards, the plates were washed with PBST 4 times, and TMB substrate was added for color development at 37° C. for 10 min. Then 2M HCl was added to stop reaction; and absorbances at 450 nm and at 630 nm (as reference wavelength) were read, and A450 nm-630 nm values of the wells in the plates were recorded.

[2] = target: T1, recombinant mouse Trop-2-his protein …; assay: ELISA, plate coated with recombinant mouse Trop-2-his, HRP-goat anti-mouse IgG (Fc gamma), OD450/630
Method: as §1

binding result [1]: binds
B1: m17-1 (antibody, mouse IgG1, V domains shown)
VH: EVKLVESGGVLVKPGGSLKLSCAASGFTFSDSAMSWVRQTPEKRLEWVASISRGDDTYYPDSVKGRITISRDFARNILYLQMTSLRSEDTAMYYCTRDRFGFAYWGQGTLVTVSA
VL: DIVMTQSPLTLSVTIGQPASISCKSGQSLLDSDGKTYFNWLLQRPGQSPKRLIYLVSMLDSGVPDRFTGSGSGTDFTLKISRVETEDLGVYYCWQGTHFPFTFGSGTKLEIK
notes: also called murine antibody 17-1

B2: PC (antibody, V domains shown)
VH: QVQLQQSGSELKKPGASVKVSCKASGYTFTNYGMNWVKQAPGQGLKWMGWINTYTGEPTYTDDFKGRFAFSLDTSVSTAYLQISSLKADDTAVYFCARGGFGSSYWYFDVWGQGSLVTVSS
VL: DIQLTQSPSSLSASVGDRVSITCKASQDVSIAVAWYQQKPGKAPKLLIYSASYRYTGVPDRFSGSGSGTDFTLTISSLQPEDFAVYYCQQHYITPLTFGAGTKVEIK
notes: not the human IgG1 Sacituzumab m5; also called Positive Control (PC); Sacituzumab, a version having murine IgG constant region; not shown: murine IgG heavy-chain constant region and murine light-chain constant region of this version
binding result [2]: no binding (tested: 1 µg/ml (paragraph 111 prints '1 g/ml'))
